The assay addresses Lrp4-myc (mouse full length Lrp4) (mouse) (UniProt Q8VI56).

The source of these data is article PMC3919806.

Sequence of UniProt Q8VI56 (Q8VI56 21-1905): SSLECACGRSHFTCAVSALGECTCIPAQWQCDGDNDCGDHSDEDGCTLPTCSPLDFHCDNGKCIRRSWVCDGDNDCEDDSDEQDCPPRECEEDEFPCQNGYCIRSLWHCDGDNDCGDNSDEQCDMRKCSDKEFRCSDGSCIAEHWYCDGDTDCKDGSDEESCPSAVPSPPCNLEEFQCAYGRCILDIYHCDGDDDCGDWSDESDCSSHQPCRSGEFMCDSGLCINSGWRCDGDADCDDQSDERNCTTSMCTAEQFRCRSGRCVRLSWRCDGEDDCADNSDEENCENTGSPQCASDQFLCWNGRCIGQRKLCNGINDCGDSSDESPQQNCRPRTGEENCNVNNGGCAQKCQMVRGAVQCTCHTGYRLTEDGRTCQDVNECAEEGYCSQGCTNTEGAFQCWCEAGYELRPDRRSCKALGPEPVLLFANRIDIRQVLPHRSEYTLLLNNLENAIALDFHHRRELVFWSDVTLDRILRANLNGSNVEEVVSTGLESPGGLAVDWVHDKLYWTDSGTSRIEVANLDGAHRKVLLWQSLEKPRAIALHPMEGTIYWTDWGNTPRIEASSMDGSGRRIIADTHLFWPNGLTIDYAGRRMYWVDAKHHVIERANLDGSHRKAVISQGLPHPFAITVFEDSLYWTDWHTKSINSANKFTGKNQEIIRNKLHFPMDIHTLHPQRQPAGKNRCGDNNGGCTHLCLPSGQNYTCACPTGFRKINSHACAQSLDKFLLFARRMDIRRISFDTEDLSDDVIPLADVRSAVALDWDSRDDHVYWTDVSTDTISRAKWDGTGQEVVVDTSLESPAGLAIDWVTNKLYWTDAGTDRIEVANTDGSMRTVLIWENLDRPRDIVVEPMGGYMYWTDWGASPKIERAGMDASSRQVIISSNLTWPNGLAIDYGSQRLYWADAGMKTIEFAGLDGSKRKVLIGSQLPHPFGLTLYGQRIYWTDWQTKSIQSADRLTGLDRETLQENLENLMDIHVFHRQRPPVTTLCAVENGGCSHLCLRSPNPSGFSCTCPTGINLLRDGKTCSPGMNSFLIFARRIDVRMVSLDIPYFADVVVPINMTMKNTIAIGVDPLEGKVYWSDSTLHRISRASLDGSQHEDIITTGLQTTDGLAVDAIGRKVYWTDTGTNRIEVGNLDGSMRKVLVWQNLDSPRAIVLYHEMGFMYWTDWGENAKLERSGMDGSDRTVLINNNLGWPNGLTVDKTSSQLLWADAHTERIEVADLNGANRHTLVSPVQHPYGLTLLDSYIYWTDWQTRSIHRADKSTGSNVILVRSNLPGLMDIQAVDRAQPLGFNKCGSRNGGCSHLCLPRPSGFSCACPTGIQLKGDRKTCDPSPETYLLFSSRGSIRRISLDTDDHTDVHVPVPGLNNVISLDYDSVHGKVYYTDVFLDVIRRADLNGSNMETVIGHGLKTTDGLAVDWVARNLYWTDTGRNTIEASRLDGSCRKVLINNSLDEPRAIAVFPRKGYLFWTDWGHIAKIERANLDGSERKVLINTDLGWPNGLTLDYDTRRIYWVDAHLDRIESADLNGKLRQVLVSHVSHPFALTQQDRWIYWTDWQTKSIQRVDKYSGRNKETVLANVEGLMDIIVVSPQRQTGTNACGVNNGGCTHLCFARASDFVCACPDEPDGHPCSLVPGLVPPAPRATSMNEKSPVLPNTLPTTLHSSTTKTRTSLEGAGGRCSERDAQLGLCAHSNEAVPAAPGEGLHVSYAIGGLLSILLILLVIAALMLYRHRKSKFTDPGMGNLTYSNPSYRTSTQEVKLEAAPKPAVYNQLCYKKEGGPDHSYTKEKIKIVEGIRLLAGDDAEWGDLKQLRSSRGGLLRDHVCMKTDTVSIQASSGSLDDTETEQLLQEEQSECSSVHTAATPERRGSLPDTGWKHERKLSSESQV

In turn, “NT-1654, C-terminal 44 kDa fragment of murine agrin (from UniProt A2ASQ1 1519-1950) (domain or fragment)” had an AChR clustering on differentiated C2C12 myotubes, 16 h (area of AChR clusters normalized to myotube area), EC50 of 440 pM.
